# Results from the supplement of paper PMC12042874.
# ± gives the uncertainty stated by the source.
# Experiment: amyloid nucleation score (Sup35N fusion, yeast selection) (log enrichment); library NNK2; higher = more nucleation; inactive = no reads after selection
# How it was run: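 For the nucleation score, DiMSum gave the log enrichment of output over input reads, centred on the mode score of non-aggregating sequences. Psi-negative yeast expressing Sup35N fused to peptides of 20 random codons were induced with 100 μM copper sulfate for 24 hours and grown 7 days at 30°C on medium lacking adenine and uracil. Input and output plasmid inserts were Illumina-sequenced, and sequences with under 100 input reads were excluded.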
row,Substance,amyloid nucleation score
1,PTGCLMICNSFVIDSVRRRP,7.812 ± 0.032
2,IMMLEVDDLYGIEQSTFWK,-0.33 ± 0.64
3,LFYKVFAYLFFVDVVCASKG,4.97 ± 0.062
4,IPRGLFCLLYNVVKEYFVLR,0.198 ± 0.4
5,LLVFNLIYPSVRKGFFIIYA,inactive
6,FVVGAES,-0.821 ± 0.48
7,LNMMFYYLRFRMHFRWMDC,-0.79 ± 0.38
8,NAFGTSFCEIMRR,1.22 ± 0.33
9,YTNTKKVLLVSVNVPRFLPV,1.99 ± 0.17
10,SDFIMTLSERVVGASLNSCD,inactive
11,CNRLVVLSSCNWYRDVADSL,0.115 ± 1
12,MVSGRPTVYKTSSLQTASAN,-0.14 ± 0.65
13,YMTPVLDSHSFADVSAIRCV,0.212 ± 0.39
14,HYCYRHIGRLQMWMKSGLHA,1.04 ± 0.34
15,EFVISKNSVPSPCRCW,0.382 ± 0.8
16,LLSIYVSSWKLRGSAPG,-0.337 ± 0.63
17,LYIVDPSTASKAHTSSLPKS,-0.324 ± 0.55
18,EGCHVGNLDCLPSETATVSV,0.143 ± 0.79
19,VLAILVTNLRLSSWFQSHMM,0.837 ± 0.52
20,PVGFDHNF,-0.451 ± 0.56
21,PGDMLSGAFHMCISNCVTSC,0.319 ± 0.38

row,Substance,amyloid nucleation score
1,SLPRWTVCVCVQADGYWMWV,7.12 ± 0.084
2,IGSWVVEFGRFGYCFHGVID,3.19 ± 0.089
3,VNDCYIILISIQALKGPICF,0.465 ± 0.8
4,NYSYMENYICQLACKTGEAG,5.88 ± 0.084
5,WDTLARYSGIQLVFE,-0.974 ± 0.55
6,RWQCLVEHMRSANLGVRRGP,0.074 ± 0.41
7,SYNRSKCNSTRLMLKSKTAH,1.51 ± 0.47
8,GMIVLRCSRSCWFVQTKADG,1.27 ± 0.48
9,TFTGLFKKLI,inactive
10,KLRPNLCKHYMTFMETSS,0.175 ± 0.53
11,LCYFCISGDRHSLEVKTLVT,-0.527 ± 0.4
12,YLLYCVS,inactive
13,SRVIWHDSQLFVVFSSTAYK,4.04 ± 0.041
14,YGYIFISCENVRTQRSVIDG,inactive
15,ACNFQVCGWERQSSRFR,3.14 ± 0.087
16,LDLSDHWACQIIGVL,0.394 ± 0.43
17,AGGWVFFQGESSSLSNTSGS,inactive
18,LCPYR,-0.776 ± 1.1
19,KLNLMCWDGLYLDMKIDSNL,3.94 ± 0.07
20,PKVLGFFK,inactive
21,CQMYHKCALVLLAGHQLRRR,1.19 ± 0.33

row,Substance,amyloid nucleation score
1,VSKSFFIVIV,5.702 ± 0.047
2,IDCRELFVSLQVNRMLE,0.234 ± 0.49
3,TLLTYMVLKCFQFVSEYLWK,3.7 ± 0.07
4,CTFFTSTPT,0.343 ± 0.51
5,FYLRNSVMCTGPDLGNSTYM,-1.15 ± 1.1
6,NISGATMEVVIYHDAVCESN,-0.361 ± 0.63
7,CRARNCVRLW,0.165 ± 0.65
8,SYYYEGGPCWIEDLHGNVYV,0.183 ± 0.64
9,NQMCIATFHHMAYT,2.87 ± 0.086
10,TGFCGRHYDLSSSTEDLYLL,0.606 ± 0.8
11,GGSKTRLFL,-0.263 ± 1.1
12,LAAVLVHAWFVKRLRMPNHH,0.93 ± 0.44
13,AYKCFGVLCFRRNRSGKEGL,-0.318 ± 0.76
14,AVCVENLCPWV,1.82 ± 0.11
15,MFVCYSRYIASEREPAACPI,inactive
16,LIRFYEIFSW,-0.237 ± 1
17,VRYDCYMPDMCFSRDHCWFE,0.079 ± 0.55
18,YYVFYMVVVCNVITIRQNHM,1.49 ± 0.28
19,SFDFLSLLSDRCLVLDVSPN,0.761 ± 0.46
20,MPTIRNWVCW,0.639 ± 0.47
21,LSFFDLIMGVRGMLQSVCGL,-0.131 ± 0.56

row,Substance,amyloid nucleation score
1,LCSCANCLYSFFTG,8.04 ± 0.023
2,LFGTNFYVQDNIVKGRVLIM,inactive
3,LYSCCLQCSSTNSIYEDLMC,inactive
4,VQEERAFKWVR,0.44 ± 0.42
5,VRYTVTRTRGRYMVKCCENV,0.108 ± 0.2
6,KSEVWSYLI,4.51 ± 0.061
7,ECNTSVLSTWARDLVSPVLT,4.3 ± 0.053
8,TASWNWLGIVRAGF,1.08 ± 0.27
9,GVGEEGARVKWIVCNKCFFP,2.1 ± 0.12
10,IMYPLRNLAQDFLGDSVSYL,-1.07 ± 0.62
11,TGRTTF,inactive
12,AVMMCIASIDFRVWYLG,1.53 ± 0.15
13,DYLIAIQLYDFYVHGLIKYR,-0.853 ± 0.78
14,GNYVSTFFKCRILYRMNLMF,-0.121 ± 1.1
15,WLMCMPILRSCWMSSG,0.749 ± 0.22
16,MAHWSSSNSTVVLGCLAWML,6.17 ± 0.081
17,LWGVYD,-0.212 ± 0.65
18,WNIWFTVCYCKHLSKSKGSD,8.667 ± 0.033
19,VRLGRWLFTFSANTDTLANM,-0.729 ± 1.1
20,FLGWPGIRQCLLFVANNRGR,-0.448 ± 0.76
21,ILAITRINA,1.19 ± 0.13
